Measured values published in US20240350583A1, “COMPOSITION FOR PREVENTING OR TREATING FIBROTIC DISEASES, COMPRISING HAPLN1” (Chung Ang University Industry Academic Cooperation …, priority 2021, published 2024).

B1: rhHAPLN1: recombinant human HAPLN1 protein of SEQ ID NO: 1 produced in CHO-K1 cells, stabilized in acetic acid buffer, sucrose, PS80, pH 5.0 (protein, listed as Homo sapiens)
chain: MKSLLLLVLISICWADHLSDNYTLDHDRAIHIQAENGPHLLVEAEQAKVFSHRGGNVTLPCKFYRDPTAFGSGIHKIRIKWTKLTSDYLKEVDVFVSMGYHKKTYGGYQGRVFLKGGSDSDASLVITDLTLEDYGRYKCEVIEGLEDDTVVVALDLQGVVFPYFPRLGRYNLNFHEAQQACLDQDAVIASFDQLYDAWRGGLDWCNAGWLSDGSVQYPITKPREPCGGQNTVPGVRNYGFWDKDKSRYDVFCFTSNFNGRFYYLIHPTKLTYDEAVQACLNDGAQIAKVGQIFAAWKILGYDRCDAGWLADGSVRYPISRPRRRCSPTEAAVRFVGFPDKKHKLYGVYCFRAYN

Key:
[1] = test system: bleomycin-induced pulmonary fibrosis; conditions: orally once daily, 14-day and 28-day groups; cited from earlier work
[2] = test system: bleomycin-induced pulmonary fibrosis (BIPF); experiment: Bleomycin-induced pulmonary fibrosis mouse model, treatment (inhalation from day 8); assay type: in vivo
Experimental: An experiment was conducted to verify the effect of ameliorating bleomycin-induced pulmonary fibrosis (BIPF) already developed by repeatedly administering the composition of the present disclosure by inhalation to animals with pulmonary fibrosis. Here, experimental results are presented that are basically similar to Example 12, but bleomycin-induced pulmonary fibrosis (BIPF) was sufficiently generated 7 days after bleomycin treatment, and that the composition of the present disclosure has the ability to treat fibrotic diseases.
To establish a bleomycin-induced pulmonary fibrosis (PF) model, 8-week to 10-week-old female C57BL/6N mice were used, and divided into 4 groups (Normal, PBS Control, 0.00075% (w/w) rhHAPLN1, 0.0015% (w/w) rhHAPLN1), with 4 mice per group, and the IPF disease induction method was referred to the paper by Liu et al. (Methods in Molecular Biology 2017, DOI: 10.1007/978-1-4939-7113-8_2) (see FIG. 13A). […]
Starting 8 days after bleomycin administration, the control was a mixture of 50 μl of a stock solution consisting of 20 mM Tris-HCl, 0.5 M NaCl, pH 8.0, 50% glycerol and 10 ml PBS (1×, pH 7.4, Gibco Co.) solution. […] The weight of each experimental animal was measured every 2 days to confirm that there was no change in weight, and a mass dosing system and aerosol chamber (Data Science International Co., Ltd.) were used to generate the fog. […]
Next, three tissue slides were prepared per mouse by cutting the middle portion of the left large lobe of the mouse, and three sections were photographed randomly on one slide, and then, for a total of nine sections, the stained darker part was distinguished from the unstained white part, and the area of the stained darker part was measured using Image J software, and each figure obtained was averaged to obtain an average value per mouse. […]

Row | Molecule | level of TGFβ1 increased by bleomycin [1] | level of periostin increased by bleomycin [1] | H&E lung tissue form (FIG. 13B) ([2]; rhHAPLN1 0.0015% (w/w)) | reduction of average area of dark (fibrotic) lung area compared to pulmonary fibrosis without treatment (FIG. 13C) ([2]; rhHAPLN1 0.0015% (w/w), nebulized 1 hour once daily for 14 days from 8 days after bleomycin) [%] | Ashcroft score evaluation (FIG. 13E) ([2]; rhHAPLN1 nebulized from 8 days after bleomycin)
1 | Cc1ccc(=O)n(-c2ccccc2)c1 [pirfenidone, reference compound] | decreased | decreased | – | – | –
2 | B1 | – | – | quite similar to that of the normal group | 51 | excellent therapeutic effect
